52 molecules from patent US20150344570A1 (published 2015) can be followed below.

Sequences and labels used below:
B1: GpH7-B3 variant S298_14T/GpL16-k0 (antibody, human IgG1, kappa)
heavy: not shown
light: DIVMTQSPLSLPVTPGEPASISCQASESLVHSNRNTYLHWYLQKPGQSPQLLIYKVSNRFSGVPDRFSGSGSGTDFTLKISRVEAEDVGVYYCSQNTHVPPTFGQGTKVEIERTVAAPSVFIFPPSDEQLKSGTASVVCLLNNFYPREAKVQWKVDNALQSGNSQESVTEQDSKDSTYSLSSTLTLSKADYEKHKVYACEVTHQGLSSPVTKSFNRGEC
notes: also called Ho Ab S298_14T
B2: GpH7-B3 variant T335_07I/GpL16-k0 (antibody, human IgG1, kappa)
heavy: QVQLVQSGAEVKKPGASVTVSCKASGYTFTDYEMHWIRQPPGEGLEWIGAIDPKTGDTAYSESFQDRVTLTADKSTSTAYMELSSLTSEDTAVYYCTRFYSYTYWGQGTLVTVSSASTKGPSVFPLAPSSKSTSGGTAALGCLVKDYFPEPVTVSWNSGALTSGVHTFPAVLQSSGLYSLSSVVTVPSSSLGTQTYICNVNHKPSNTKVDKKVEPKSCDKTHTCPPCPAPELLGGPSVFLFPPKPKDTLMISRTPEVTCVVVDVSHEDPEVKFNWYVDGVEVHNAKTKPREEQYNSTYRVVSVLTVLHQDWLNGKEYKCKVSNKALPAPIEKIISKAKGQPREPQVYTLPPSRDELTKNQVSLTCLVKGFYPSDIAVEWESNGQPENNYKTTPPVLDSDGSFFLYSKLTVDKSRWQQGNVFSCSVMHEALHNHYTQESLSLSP
light: B1 light
notes: also called Ho Ab T335_07I
B3: GpH7-B3 variant S337_01G/GpL16-k0 (antibody, human IgG1, kappa)
heavy: not shown
light: B1 light
notes: also called Ho Ab S337_01G
B4: GpH7-B3 variant S337_09D/GpL16-k0 (antibody, human IgG1, kappa)
heavy: not shown
light: B1 light
notes: also called Ho Ab S337_09D
B5: GpH7-B3 variant S337_10E/GpL16-k0 (antibody, human IgG1, kappa)
heavy: not shown
light: B1 light
notes: also called Ho Ab S337_10E
B6: GpH7-B3 variant Y300_12R/GpL16-k0 (antibody, human IgG1, kappa)
heavy: not shown
light: B1 light
notes: also called Ho Ab Y300_12R
B7: GpH7-B3 variant S324_12R/GpL16-k0 (antibody, human IgG1, kappa)
heavy: not shown
light: B1 light
notes: also called Ho Ab S324_12R
B8: GpH7-B3 variant S324_20W/GpL16-k0 (antibody, human IgG1, kappa)
heavy: not shown
light: B1 light
notes: also called Ho Ab S324_20W
B9: GpH7-B3 variant S337_04F/GpL16-k0 (antibody, human IgG1, kappa)
heavy: not shown
light: B1 light
notes: also called Ho Ab S337_04F
B10: GpH7-B3 variant S337_03V/GpL16-k0 (antibody, human IgG1, kappa)
heavy: not shown
light: B1 light
notes: also called Ho Ab S337_03V
B11: GpH7-B3 variant T335_10E/GpL16-k0 (antibody, human IgG1, kappa)
heavy: not shown
light: B1 light
notes: also called Ho Ab T335_10E
B12: GpH7-B3 variant S337_06M/GpL16-k0 (antibody, human IgG1, kappa)
heavy: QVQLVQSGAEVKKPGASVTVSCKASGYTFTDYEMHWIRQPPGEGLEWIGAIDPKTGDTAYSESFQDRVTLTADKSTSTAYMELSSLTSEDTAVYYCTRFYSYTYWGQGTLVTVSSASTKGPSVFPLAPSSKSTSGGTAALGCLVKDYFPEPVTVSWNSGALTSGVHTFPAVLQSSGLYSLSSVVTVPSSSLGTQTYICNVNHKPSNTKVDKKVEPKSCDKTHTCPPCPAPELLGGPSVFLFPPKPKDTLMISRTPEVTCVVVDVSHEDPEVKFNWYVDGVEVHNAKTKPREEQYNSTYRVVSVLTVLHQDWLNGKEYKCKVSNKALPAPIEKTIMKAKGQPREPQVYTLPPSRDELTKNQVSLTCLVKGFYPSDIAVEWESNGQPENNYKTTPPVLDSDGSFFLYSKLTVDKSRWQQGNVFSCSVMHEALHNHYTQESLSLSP
light: B1 light
notes: also called Ho Ab S337_06M
B13: GpH7-B3 variant T335_05P/GpL16-k0 (antibody, human IgG1, kappa)
heavy: not shown
light: B1 light
notes: also called Ho Ab T335_05P
B14: GpH7-B3 variant T335_15Y/GpL16-k0 (antibody, human IgG1, kappa)
heavy: not shown
light: B1 light
notes: also called Ho Ab T335_15Y
B15: GpH7-B3 variant S298_18N/GpL16-k0 (antibody, human IgG1, kappa)
heavy: not shown
light: B1 light
notes: also called Ho Ab S298_18N
B16: GpH7-B3 variant S298_20W/GpL16-k0 (antibody, human IgG1, kappa)
heavy: not shown
light: B1 light
notes: also called Ho Ab S298_20W
B17: GpH7-B3 variant S337_02A/GpL16-k0 (antibody, human IgG1, kappa)
heavy: not shown
light: B1 light
notes: also called Ho Ab S337_02A
B18: GpH7-B3 variant S324_02A/GpL16-k0 (antibody, human IgG1, kappa)
heavy: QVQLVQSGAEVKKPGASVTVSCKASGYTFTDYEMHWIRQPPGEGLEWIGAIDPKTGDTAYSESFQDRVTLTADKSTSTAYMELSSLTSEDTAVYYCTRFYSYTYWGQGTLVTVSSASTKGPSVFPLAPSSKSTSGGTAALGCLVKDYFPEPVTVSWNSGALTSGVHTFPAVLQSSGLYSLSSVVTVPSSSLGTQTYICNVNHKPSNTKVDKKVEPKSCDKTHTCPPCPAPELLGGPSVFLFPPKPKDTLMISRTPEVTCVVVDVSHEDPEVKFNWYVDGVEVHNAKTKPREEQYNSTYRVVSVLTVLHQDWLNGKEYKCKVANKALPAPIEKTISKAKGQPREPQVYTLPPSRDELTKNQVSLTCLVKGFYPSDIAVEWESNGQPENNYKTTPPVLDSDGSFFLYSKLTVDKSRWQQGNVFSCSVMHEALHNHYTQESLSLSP
light: B1 light
notes: also called Ho Ab S324_02A
B19: GpH7-B3 variant T335_04F/GpL16-k0 (antibody, human IgG1, kappa)
heavy: not shown
light: B1 light
notes: also called Ho Ab T335_04F
B20: GpH7-B3 variant S324_08L/GpL16-k0 (antibody, human IgG1, kappa)
heavy: not shown
light: B1 light
notes: also called Ho Ab S324_08L
B21: GpH7-B3 variant S337_07I/GpL16-k0 (antibody, human IgG1, kappa)
heavy: not shown
light: B1 light
notes: also called Ho Ab S337_07I
B22: GpH7-B3 variant S298_15Y/GpL16-k0 (antibody, human IgG1, kappa)
heavy: not shown
light: B1 light
notes: also called Ho Ab S298_15Y
B23: GpH7-B3 variant S337_19Q/GpL16-k0 (antibody, human IgG1, kappa)
heavy: not shown
light: B1 light
notes: also called Ho Ab S337_19Q
B24: GpH7-B3 variant T335_12R/GpL16-k0 (antibody, human IgG1, kappa)
heavy: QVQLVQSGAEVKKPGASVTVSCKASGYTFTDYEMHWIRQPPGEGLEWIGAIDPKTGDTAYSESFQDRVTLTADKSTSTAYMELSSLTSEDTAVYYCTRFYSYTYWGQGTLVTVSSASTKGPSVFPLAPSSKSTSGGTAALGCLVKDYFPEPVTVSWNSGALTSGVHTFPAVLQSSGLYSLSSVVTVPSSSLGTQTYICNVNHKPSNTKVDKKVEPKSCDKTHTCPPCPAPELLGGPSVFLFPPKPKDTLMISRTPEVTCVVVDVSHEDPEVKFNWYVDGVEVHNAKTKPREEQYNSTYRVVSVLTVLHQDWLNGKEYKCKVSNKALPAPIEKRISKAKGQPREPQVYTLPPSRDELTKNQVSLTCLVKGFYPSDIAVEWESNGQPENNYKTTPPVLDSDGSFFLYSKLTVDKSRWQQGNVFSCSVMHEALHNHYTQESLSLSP
light: B1 light
notes: also called Ho Ab T335_12R
B25: GpH7-B3 variant T335_09D/GpL16-k0 (antibody, human IgG1, kappa)
heavy: not shown
light: B1 light
notes: also called Ho Ab T335_09D
B26: GpH7-B3 variant S324_16H/GpL16-k0 (antibody, human IgG1, kappa)
heavy: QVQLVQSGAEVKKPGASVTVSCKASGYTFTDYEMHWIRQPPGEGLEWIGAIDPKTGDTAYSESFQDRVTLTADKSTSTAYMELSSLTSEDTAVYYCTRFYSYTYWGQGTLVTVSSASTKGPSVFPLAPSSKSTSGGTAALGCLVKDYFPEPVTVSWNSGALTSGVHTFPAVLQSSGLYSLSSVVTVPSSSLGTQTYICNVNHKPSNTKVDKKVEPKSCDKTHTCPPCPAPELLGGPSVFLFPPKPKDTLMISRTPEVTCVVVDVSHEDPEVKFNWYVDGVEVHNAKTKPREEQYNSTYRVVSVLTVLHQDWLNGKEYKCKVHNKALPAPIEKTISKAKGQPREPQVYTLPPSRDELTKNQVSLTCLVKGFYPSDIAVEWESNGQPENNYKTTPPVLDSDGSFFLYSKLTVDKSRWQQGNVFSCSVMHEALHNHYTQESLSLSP
light: B1 light
notes: also called Ho Ab S324_16H
B27: GpH7-B3 variant S324_19Q/GpL16-k0 (antibody, human IgG1, kappa)
heavy: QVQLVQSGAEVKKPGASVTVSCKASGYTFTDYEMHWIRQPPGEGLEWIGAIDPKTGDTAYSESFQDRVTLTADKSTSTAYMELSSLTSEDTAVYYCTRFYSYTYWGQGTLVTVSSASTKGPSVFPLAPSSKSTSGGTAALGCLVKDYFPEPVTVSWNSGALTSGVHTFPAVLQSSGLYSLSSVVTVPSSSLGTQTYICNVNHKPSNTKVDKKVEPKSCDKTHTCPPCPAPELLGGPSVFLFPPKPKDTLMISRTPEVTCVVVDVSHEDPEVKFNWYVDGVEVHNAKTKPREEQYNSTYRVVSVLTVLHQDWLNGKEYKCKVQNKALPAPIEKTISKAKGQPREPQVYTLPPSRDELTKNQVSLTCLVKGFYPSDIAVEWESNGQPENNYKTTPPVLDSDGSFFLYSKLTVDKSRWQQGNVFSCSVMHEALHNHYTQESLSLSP
light: B1 light
notes: also called Ho Ab S324_19Q
B28: GpH7-B3 variant T335_06M/GpL16-k0 (antibody, human IgG1, kappa)
heavy: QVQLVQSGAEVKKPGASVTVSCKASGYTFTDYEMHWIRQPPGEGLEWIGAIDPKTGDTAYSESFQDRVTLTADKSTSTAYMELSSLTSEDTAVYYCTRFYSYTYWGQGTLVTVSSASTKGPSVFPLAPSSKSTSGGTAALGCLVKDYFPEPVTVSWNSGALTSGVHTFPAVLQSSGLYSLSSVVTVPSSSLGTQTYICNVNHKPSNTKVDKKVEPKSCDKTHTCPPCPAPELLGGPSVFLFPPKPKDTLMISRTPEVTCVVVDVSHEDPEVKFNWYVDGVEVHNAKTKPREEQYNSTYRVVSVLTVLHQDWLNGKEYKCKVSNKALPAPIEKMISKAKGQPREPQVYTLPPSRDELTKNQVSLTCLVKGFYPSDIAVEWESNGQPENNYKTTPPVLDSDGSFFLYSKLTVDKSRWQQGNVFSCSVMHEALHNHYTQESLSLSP
light: B1 light
notes: also called Ho Ab T335_06M
B29: GpH7-B3 variant T335_11K/GpL16-k0 (antibody, human IgG1, kappa)
heavy: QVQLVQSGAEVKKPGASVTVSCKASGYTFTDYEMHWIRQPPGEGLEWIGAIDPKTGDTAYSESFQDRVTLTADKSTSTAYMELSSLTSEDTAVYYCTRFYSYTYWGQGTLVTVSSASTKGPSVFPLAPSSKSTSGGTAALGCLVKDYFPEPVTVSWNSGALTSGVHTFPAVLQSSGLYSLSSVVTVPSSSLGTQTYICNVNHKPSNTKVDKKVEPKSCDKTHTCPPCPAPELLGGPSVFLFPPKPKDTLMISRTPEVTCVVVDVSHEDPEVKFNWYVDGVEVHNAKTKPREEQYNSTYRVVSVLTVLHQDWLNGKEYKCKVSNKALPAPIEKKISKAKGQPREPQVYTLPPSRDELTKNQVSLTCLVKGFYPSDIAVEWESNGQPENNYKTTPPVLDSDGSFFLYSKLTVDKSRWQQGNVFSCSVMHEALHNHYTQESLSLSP
light: B1 light
notes: also called Ho Ab T335_11K
B30: GpH7-B3 variant T335_08L/GpL16-k0 (antibody, human IgG1, kappa)
heavy: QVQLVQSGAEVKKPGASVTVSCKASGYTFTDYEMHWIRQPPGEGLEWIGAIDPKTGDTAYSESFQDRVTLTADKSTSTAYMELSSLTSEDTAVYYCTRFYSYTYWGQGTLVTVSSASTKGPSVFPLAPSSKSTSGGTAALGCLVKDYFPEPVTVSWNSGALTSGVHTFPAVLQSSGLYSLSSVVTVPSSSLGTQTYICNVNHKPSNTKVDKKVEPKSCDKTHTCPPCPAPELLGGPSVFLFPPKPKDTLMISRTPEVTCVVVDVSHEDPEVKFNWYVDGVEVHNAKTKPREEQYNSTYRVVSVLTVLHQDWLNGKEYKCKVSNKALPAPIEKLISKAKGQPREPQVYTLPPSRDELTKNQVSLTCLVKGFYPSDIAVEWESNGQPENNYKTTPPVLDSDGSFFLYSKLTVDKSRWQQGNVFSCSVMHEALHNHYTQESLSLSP
light: B1 light
notes: also called Ho Ab T335_08L
B31: GpH7-B3 variant S337_08L/GpL16-k0 (antibody, human IgG1, kappa)
heavy: not shown
light: B1 light
notes: also called Ho Ab S337_08L
B32: GpH7-B3 variant S337_15Y/GpL16-k0 (antibody, human IgG1, kappa)
heavy: not shown
light: B1 light
notes: also called Ho Ab S337_15Y
B33: GpH7-B3 variant S337_12R/GpL16-k0 (antibody, human IgG1, kappa)
heavy: not shown
light: B1 light
notes: also called Ho Ab S337_12R
B34: GpH7-B3 variant S298_19Q/GpL16-k0 (antibody, human IgG1, kappa)
heavy: not shown
light: B1 light
notes: also called Ho Ab S298_19Q
B35: GpH7-B3 variant S324_14T/GpL16-k0 (antibody, human IgG1, kappa)
heavy: not shown
light: B1 light
notes: also called Ho Ab S324_14T
B36: GpH7-B3 variant S337_20W/GpL16-k0 (antibody, human IgG1, kappa)
heavy: not shown
light: B1 light
notes: also called Ho Ab S337_20W
B37: GpH7-B3 variant S324_03V/GpL16-k0 (antibody, human IgG1, kappa)
heavy: not shown
light: B1 light
notes: also called Ho Ab S324_03V
B38: GpH7-B3 variant V266_19Q/GpL16-k0 (antibody, human IgG1, kappa)
heavy: not shown
light: B1 light
notes: also called Ho Ab V266_19Q
B39: GpH7-B3 variant S324_15Y/GpL16-k0 (antibody, human IgG1, kappa)
heavy: not shown
light: B1 light
notes: also called Ho Ab S324_15Y
B40: GpH7-B3 variant S324_11K/GpL16-k0 (antibody, human IgG1, kappa)
heavy: not shown
light: B1 light
notes: also called Ho Ab S324_11K
B41: GpH7-B3 variant S298_16H/GpL16-k0 (antibody, human IgG1, kappa)
heavy: not shown
light: B1 light
notes: also called Ho Ab S298_16H
B42: GpH7-B3 variant S324_18N/GpL16-k0 (antibody, human IgG1, kappa)
heavy: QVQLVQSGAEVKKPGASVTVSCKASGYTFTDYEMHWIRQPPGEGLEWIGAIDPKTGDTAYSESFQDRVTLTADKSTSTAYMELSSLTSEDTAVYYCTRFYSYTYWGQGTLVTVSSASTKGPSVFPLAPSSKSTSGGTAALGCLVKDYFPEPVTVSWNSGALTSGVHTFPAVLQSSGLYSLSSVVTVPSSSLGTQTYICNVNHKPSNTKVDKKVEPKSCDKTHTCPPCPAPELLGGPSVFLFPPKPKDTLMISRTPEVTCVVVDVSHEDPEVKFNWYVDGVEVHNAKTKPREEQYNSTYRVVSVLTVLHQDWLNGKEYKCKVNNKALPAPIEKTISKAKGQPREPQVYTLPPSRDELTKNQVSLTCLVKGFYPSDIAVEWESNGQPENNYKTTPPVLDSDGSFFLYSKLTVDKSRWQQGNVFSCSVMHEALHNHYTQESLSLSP
light: B1 light
notes: also called Ho Ab S324_18N
B43: GpH7-A5/GpH7-B3 variant S298_11K/GpL16-k0 (antibody, human IgG1, kappa)
heavy 1: not shown
heavy 2: not shown
light: B1 light
notes: also called He Ab S298_11K
B44: GpH7-A5/GpH7-B3 variant P271_11K/GpL16-k0 (antibody, human IgG1, kappa)
heavy 1: not shown
heavy 2: not shown
light: B1 light
notes: also called He Ab P271_11K
B45: GpH7-A5/GpH7-B3 variant P271_07I/GpL16-k0 (antibody, human IgG1, kappa)
heavy 1: not shown
heavy 2: not shown
light: B1 light
notes: also called He Ab P271_07I
B46: GpH7-A5/GpH7-B3 variant P271_13S/GpL16-k0 (antibody, human IgG1, kappa)
heavy 1: not shown
heavy 2: not shown
light: B1 light
notes: also called He Ab P271_13S
B47: GpH7-A5/GpH7-B3 variant P271_20W/GpL16-k0 (antibody, human IgG1, kappa)
heavy 1: not shown
heavy 2: not shown
light: B1 light
notes: also called He Ab P271_20W
B48: GpH7-A5/GpH7-B3 variant Q295_03V/GpL16-k0 (antibody, human IgG1, kappa)
heavy 1: not shown
heavy 2: not shown
light: B1 light
notes: also called He Ab Q295_03V
B49: GpH7-A5/GpH7-B3 variant P271_04F/GpL16-k0 (antibody, human IgG1, kappa)
heavy 1: not shown
heavy 2: not shown
light: B1 light
notes: also called He Ab P271_04F
B50: GpH7-A5/GpH7-B3 variant Q295_02A/GpL16-k0 (antibody, human IgG1, kappa)
heavy 1: not shown
heavy 2: not shown
light: B1 light
notes: also called He Ab Q295_02A
B51: GpH7-A5/GpH7-B3 variant P271_06M/GpL16-k0 (antibody, human IgG1, kappa)
heavy 1: not shown
heavy 2: not shown
light: B1 light
notes: also called He Ab P271_06M
B52: GpH7-A5/GpH7-B3 variant P271_12R/GpL16-k0 (antibody, human IgG1, kappa)
heavy 1: not shown
heavy 2: not shown
light: B1 light
notes: also called He Ab P271_12R

In one assay the target is T1, FcγRIa (human, UniProt P12314 16-292).
T1 construct: extracellular domain; Soluble extracellular domain expressed in FreeStyle293 cells, used as analyte in Biacore; also called FcgRI; 1a; not shown: His tag attached to the C terminus
T1 sequence (P12314 16-292): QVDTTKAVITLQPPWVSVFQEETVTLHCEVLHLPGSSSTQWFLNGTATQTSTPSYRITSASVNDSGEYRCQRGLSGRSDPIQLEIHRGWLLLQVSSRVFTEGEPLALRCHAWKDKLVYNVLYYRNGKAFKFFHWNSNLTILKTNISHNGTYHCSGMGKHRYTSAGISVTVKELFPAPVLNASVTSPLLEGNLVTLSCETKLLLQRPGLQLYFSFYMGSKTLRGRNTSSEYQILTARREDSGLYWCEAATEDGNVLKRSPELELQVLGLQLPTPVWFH
Description: SPR (Biacore); Ho Ab vs HoCon Ab GpH7-B3/GpL16-k0. The procedure: (§1) Analysis of interaction between objective antibody and the FcγR was carried out using Biacore T100 (GE Healthcare). HBS-EP+ (GE Healthcare) was used as the running buffer, and the measurement temperature was set to 25° C. Chips produced by immobilizing the antigen peptide by the amine coupling method to a Series S Sencor Chip CM5 (GE Healthcare), or alternatively, chips produced by allowing preliminarily biotinylated antigen peptides to interact with and immobilize onto a Series S Sensor Chip SA (certified) (GE Healthcare) were used. Antibodies of interest were captured onto an antigen peptide-immobilized chip, and allowed to interact to each FcγR diluted with running buffer. To regenerate and repeatedly use the chip, the antibodies captured on the chip were washed off by reacting 10 mM glycine-HCl, pH 1.5.
In general terms: SPR reads the build-up and loss of mass on a sensor chip optically.
B1: the Ho/Con_1a was 106 relative binding, control = 100.
In the case of B2, the Ho/Con_1a was 105 relative binding, control = 100.
Same read-out and setting: as for B3, the figure is 102 relative binding, control = 100; as for B4, 106 relative binding, control = 100.
On the same count and under the same terms, as for B5, the figure is 104 relative binding, control = 100.
The same measure, in the same setting: as for B6, the figure is 96.5 relative binding, control = 100; as for B7, 101 relative binding, control = 100; as for B8, 112 relative binding, control = 100.
For B9, the Ho/Con_1a was 105 relative binding, control = 100.
The same measure, in the same setting: next, B10: 105 relative binding, control = 100; B11: 108 relative binding, control = 100; B12: 102 relative binding, control = 100.
Still for that read-out and setting: as for B13, the figure is 106 relative binding, control = 100; as for B14, 106 relative binding, control = 100.
On the same count and under the same terms, next, B15: 104 relative binding, control = 100; B16: 71.5 relative binding, control = 100; B17: 103 relative binding, control = 100.
B18: the Ho/Con_1a was 103 relative binding, control = 100.
Same read-out and setting: next, B19: 105 relative binding, control = 100; B20: 103 relative binding, control = 100; B21: 105 relative binding, control = 100.
For B22, the Ho/Con_1a was 103 relative binding, control = 100.
Same read-out and setting: as for B23, the figure is 105 relative binding, control = 100.
For the molecule B24, the Ho/Con_1a is 106 relative binding, control = 100.
On the same count and under the same terms, as for B25, the figure is 107 relative binding, control = 100.
The same measure, in the same setting: next, B26: 111 relative binding, control = 100; B27: 111 relative binding, control = 100.
On the same count and under the same terms, next, B28: 106 relative binding, control = 100.
For the molecule B29, the Ho/Con_1a was 103 relative binding, control = 100.
On the same count and under the same terms, as for B30, the figure is 105 relative binding, control = 100; as for B31, 105 relative binding, control = 100.
With B32, the Ho/Con_1a was 104 relative binding, control = 100.
The same measure, in the same setting: as for B33, the figure is 105 relative binding, control = 100; as for B34, 105 relative binding, control = 100; as for B35, 112 relative binding, control = 100.
With B36, the Ho/Con_1a was 104 relative binding, control = 100.
The same measure, in the same setting: next, B37: 103 relative binding, control = 100; B38: 91.2 relative binding, control = 100; B39: 112 relative binding, control = 100.
On the same count and under the same terms, next, B40: 100 relative binding, control = 100; B41: 107 relative binding, control = 100; B42: 111 relative binding, control = 100.

In the next assay the target is T1, FcγRIa. The experiment in a line: SPR (Biacore); He Ab vs HeCon Ab GpH7-A5/GpH7-B3/GpL16-k0. The procedure:
as §1
Regarding B43, the He/Con_1a was 109 relative binding, control = 100.
Take B44: the He/Con_1a is 103 relative binding, control = 100.
The same measure, in the same setting: next, B45: 102 relative binding, control = 100.
Still for that read-out and setting: next, B46: 102 relative binding, control = 100.
For the molecule B47, the He/Con_1a is 103 relative binding, control = 100.
The same measure, in the same setting: next, B48: 104 relative binding, control = 100; B49: 102 relative binding, control = 100; B50: 104 relative binding, control = 100.
Still for that read-out and setting: next, B51: 102 relative binding, control = 100; B52: 102 relative binding, control = 100.
